Assay [1] has as its target neuronal receptor for agrin, on cultured mouse cortical neurons (mouse). The assay is described as follows: NIH Image analysis of immunofluorescence on cortical neurons; competitor C-Ag20z8 at 1:1 molar ratio (unpublished data).
The target is the same in assay [2]. The assay is described as follows: cell-based or functional assay.

The text below walks through data of patent US20050159354A1.

On to “rC-Agy4z8, soluble 95-kD COOH-terminal fragment of rat agrin, y4z8 isoform (from UniProt P25304 1153-1951) (ligand)”, for which the reduction of labeling (mean pixel intensity) in assay [1] turned out to be 30%.
In assay [2], “C-Ag20z8, 20-kD COOH-terminal fragment of mouse agrin, z8 splice variant (ligand)” gave an EC50 of c-fos induction in cortical neurons (in situ enzyme-linked immunoassay) of 0.0112 nM and a rescue of glutamate-induced Fos expression in agrin-deficient neurons (5 nM, 2 d) of 2.2 fold.
In assay [2], “C-Ag20z0, 20-kD COOH-terminal fragment of mouse agrin, z0 splice variant (ligand)” came in with an EC50 of c-fos induction in cortical neurons (in situ enzyme-linked immunoassay) of 0.0133 nM and a rescue of glutamate-induced Fos expression in agrin-deficient neurons (5 nM, 2 d) of 2.2 fold.
As to “C-Ag15, 15-kD COOH-terminal fragment of mouse agrin (ligand)”, in assay [2], the IC50 of inhibition of c-fos induction by 50 pM C-Ag95z8 in cortical neurons was 64.5 pM and the inhibition of rescue of the agrin-deficient glutamate response by 5 nM C-Ag95z0 (10 nM C-Ag15) came out at 54%.
In assay [2], “C-Ag95z8, soluble 95-kD COOH terminus of mouse agrin, y4 z8 (from UniProt A2ASQ1 1144-1950) (ligand)” showed an EC50 of c-fos induction in cortical neurons (in situ enzyme-linked immunoassay) of 0.0127 nM.
In assay [2], “C-Ag95z0, soluble 95-kD COOH terminus of mouse agrin, y4 z0 (from UniProt A2ASQ1 1144-1950) (ligand)” gave an EC50 of c-fos induction in cortical neurons (in situ enzyme-linked immunoassay) of 0.0119 nM.
